Experimental data from PMC10165274 (The Journal of Biological Chemistry, 2023).
One block for each binder: values may come before it.

Columns and labels:
Assay in all cases: ITC; peptide (FEN1 800 uM, pol δ p66 550 uM, RNaseH2B 750 uM) with 33 to 38 uM individual PCNA (not trimeric rings); 25 °C
Details in all cases: both partners purified
[1] = target: T1, Proliferating cell nuclear antigen, wild type (human, UniProt P12004 1-261)
T1 construct: PCNA, human; untagged, expressed from the pET3c vector; Homotrimeric ring; also called PCNA-WT; PCNA; source: E. coli BLR-DE3, purified (S and Q HiTrap columns, Sephacryl-200 gel filtration)
T1 sequence (P12004 whole entry): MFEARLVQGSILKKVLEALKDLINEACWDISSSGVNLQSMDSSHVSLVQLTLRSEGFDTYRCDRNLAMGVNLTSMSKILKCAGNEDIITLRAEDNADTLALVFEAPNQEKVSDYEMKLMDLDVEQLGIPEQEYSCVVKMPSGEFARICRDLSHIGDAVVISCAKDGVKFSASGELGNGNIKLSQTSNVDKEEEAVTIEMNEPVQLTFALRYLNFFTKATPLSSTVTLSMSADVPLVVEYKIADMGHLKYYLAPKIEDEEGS

[2] = target: T2, Proliferating cell nuclear antigen C148S variant (human, UniProt P12004 1-261, C148S)
T2 construct: PCNA, human, patient-derived variant p.Cys148Ser; untagged, made by site-directed mutagenesis of PCNA-WT in pET3c; Disease-associated natural allele (PARD); Homotrimeric ring; also called PCNA-C148S; C148S-PCNA; source: E. coli BLR-DE3, purified (S and Q HiTrap columns, Sephacryl-200 gel filtration)
T2 sequence (P12004 whole entry C148S): as the sequence (P12004 whole entry) above, with C148S counted along it

[3] = target: T3, Proliferating cell nuclear antigen S228I variant (human, UniProt P12004 1-261, S228I)
T3 construct: PCNA, human, patient-derived variant p.Ser228Ile; expressed from the pET3c vector; Disease-associated natural allele (PARD); also called PCNA-S228I; source: E. coli BLR-DE3, purified (S and Q HiTrap columns, Sephacryl-200 gel filtration)
T3 sequence (P12004 whole entry S228I): as the sequence (P12004 whole entry) above, with S228I counted along it

Kd [1]: 11 ± 2 µM | Kd [2]: 11 ± 2 µM
B1: FEN1 PIP-box peptide (peptide)
peptide: STQGRLDDFFKVTGSL
notes: PIP-box peptide of Flap endonuclease 1 (FEN1); free C-terminus (-OH); source: synthetic peptide (21st Century Biochemicals)

Kd [1]: 3 ± 0.16 µM | Kd [3]: 4 ± 0.14 µM | Kd [2]: 2.8 ± 0.33 µM
B2: DNA polymerase delta p66 PIP-box peptide (peptide)
peptide: KANRQVSITGFFQRK
notes: PIP-box peptide of the p66 subunit of DNA polymerase delta; also called pol δ p66; pol δ; source: synthetic peptide (21st Century Biochemicals)

Kd [1]: 9.7 ± 0.3 µM | Kd [2]: 7.8 ± 0.01 µM
B3: RNaseH2B PIP-box peptide (peptide)
peptide: DKSGMKSIDTFFGVKNKKKIGKV
notes: PIP-box peptide of RNaseH2B; free C-terminus (-OH); printed with a blank after SID; source: synthetic peptide (21st Century Biochemicals)
